In this data set the target is GST-NSUN5 (UniProt Q96P11 1-429). The experiment in a line: EMSA. On the technique in general: A gel shift assay detects complexes by their altered migration in electrophoresis.
Chain of GST-NSUN5 (Q96P11 whole entry): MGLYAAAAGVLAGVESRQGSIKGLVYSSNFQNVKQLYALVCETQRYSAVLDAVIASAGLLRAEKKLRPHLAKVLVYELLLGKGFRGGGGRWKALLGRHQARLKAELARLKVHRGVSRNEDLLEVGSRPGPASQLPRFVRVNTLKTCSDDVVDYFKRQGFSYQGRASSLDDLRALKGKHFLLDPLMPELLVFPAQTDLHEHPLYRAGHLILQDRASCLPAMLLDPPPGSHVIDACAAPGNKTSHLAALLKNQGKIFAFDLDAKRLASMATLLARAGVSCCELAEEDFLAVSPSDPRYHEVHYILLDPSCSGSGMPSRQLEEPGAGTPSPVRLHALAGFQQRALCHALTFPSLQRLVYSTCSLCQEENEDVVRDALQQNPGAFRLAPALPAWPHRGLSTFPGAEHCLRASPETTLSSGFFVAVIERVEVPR

B1: Probe1 (Oligo 1), CTNNB1 (ssRNA)
RNA: GUCCUUCGGGCUGGUGACAGGG
As for B1, the binding result is “binds”.

The values above are taken from publication PMC10998593.
